Test results reported in article PMC9892032.
“And” between values parts separate entries of the source, which are not always exact repeats. Equal entries are not always repeated.

Target: Lake Sinai virus 2 capsid protein, full-length (residues 1–520) (Lake Sinai virus 2)
Test: cryo-EM structure; purified LSV2 VLPs (30 mg/mL) assembled in vitro in 50 mM HEPES, 300 mM NaCl at pH 6.5, 7.5 or 8.5; T = 4 and T = 3 particles from single datasets, icosahedral and focused refinement

In the case of “Lake Sinai virus 2 capsid protein, full-length (residues 1–520) (natural protein)”, the stoichiometry N is reported as 240 copies and 180 copies.
